Data: article PMC5683654, “Interaction between the flagellar pocket collar and the hook complex via a novel microtubule-binding protein in Trypanosoma brucei” (PLoS Pathogens, 2017)

How the values were obtained:
[1] = target: BILBO1-Edge-Mut (K60A/K62A), bacterially expressed BILBO1-NTD’ (Trypanosoma brucei); experiment: ITC; 25°C, 20 mM Tris-HCl pH 8.0, 50 mM NaCl; 50 μM BILBO1-NTD’ in the cell titrated with 600 μM FPC4-B1BD; one-site binding model
[2] = target: taxol-stabilised microtubules (polymerised tubulin); experiment: co-sedimentation; microtubule binding assay; increasing concentrations of FPC4 fragment with 7.2 μM polymerised tubulin in PEMD, 1 h at 22°C, 16,100 g; pellets and supernatants on SDS-PAGE
BILBO1-NTD’ (aa 1–120) [3] = target: T1, BILBO1-NTD’ (aa 1–120) (Trypanosoma brucei, UniProt Q382W6 1-120); experiment: ITC; 25°C, 20 mM Tris-HCl pH 8.0, 50 mM NaCl; 50 μM BILBO1-NTD’ in the cell titrated with 600 μM FPC4-B1BD; one-site binding model; settings: both partners purified
T1 construct: BILBO1 of Trypanosoma brucei, Tb927.11.12150, aa 1-120, cloned into pET-15b; also called TbBILBO1-NTD’; 6His-BILBO1-NTD’; source: E. coli, purified (Ni-HiTrap, tag removed with thrombin, Superdex-200); not shown: His6, N-terminal, cleaved
T1 sequence (looked up): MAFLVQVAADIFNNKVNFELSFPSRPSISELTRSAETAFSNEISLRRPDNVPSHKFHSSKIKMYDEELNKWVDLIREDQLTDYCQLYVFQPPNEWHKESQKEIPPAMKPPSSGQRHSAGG

BILBO1-NTD’ (aa 1–120) [4] = target: T1, BILBO1-NTD’ (aa 1–120); experiment: SEC-MALS; static light scattering on Superdex 200 10/300 GL; purified proteins mixed at molar ratio ~1:2, total 2 mg/ml, 30 min at room temperature; settings: both partners purified
FPC4-B1BD (aa 357–440) = target: T2, FPC4-B1BD (aa 357–440) (Trypanosoma brucei, UniProt Q57YN8 357-440); experiment: ITC
T2 chain: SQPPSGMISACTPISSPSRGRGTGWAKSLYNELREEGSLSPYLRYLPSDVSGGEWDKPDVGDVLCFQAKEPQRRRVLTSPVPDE

FPC4-B1BD (aa 357–440) (from UniProt Q57YN8 357-440) (domain or fragment)
Kd [1]: 18 µM

FPC4-1-260-6His (domain or fragment)
saturating concentration [2]: 5.6 µM

B1: FPC4-B1BD (aa 357–440) (domain or fragment, Trypanosoma brucei, UniProt Q57YN8 357-440, looked up)
chain: SQPPSGMISACTPISSPSRGRGTGWAKSLYNELREEGSLSPYLRYLPSDVSGGEWDKPDVGDVLCFQAKEPQRRRVLTSPVPDE
notes: FPC4 of Trypanosoma brucei, Tb927.8.6370, aa 357-440, cloned into the custom vector MalpET; also called TbFPC4-B1BD; MBP-tagged FPC4-B1BD; source: E. coli, purified (Ni-HiTrap, tag removed with TEV, Superdex-200); not shown: MBP, N-terminal, cleaved; His10, N-terminal, cleaved
Kd (BILBO1-NTD’ (aa 1–120) [3]): ~5 µM
stoichiometry N (BILBO1-NTD’ (aa 1–120) [4]): 1

B2: BILBO1-NTD’ (aa 1–120) (domain or fragment)
chain: MAFLVQVAADIFNNKVNFELSFPSRPSISELTRSAETAFSNEISLRRPDNVPSHKFHSSKIKMYDEELNKWVDLIREDQLTDYCQLYVFQPPNEWHKESQKEIPPAMKPPSSGQRHSAGG
Kd (FPC4-B1BD (aa 357–440)): 5.4 µM
